26 sequences from the DeepSol protein solubility set can be followed below.

The series in a line: soluble on expression in E. coli; label from the status in PepcDB or PDB records.
As for “SNAMKFLTVSDDMNFLRQVNTLVAGKGDMDSVIIGEGDAKGLGSKVLYRAKKGTPFDAVSEGILKIAGNYDYIAIGSTEVGREIAGYLSFKTGFYTATEIFSLEFNGQKAHTKRFFYGGKTVIEEESDARILTVAPGVIEAKDLGTTPEIRDLEIGQSRIKITKFV”, the “soluble on expression in E. coli” value is listed as “soluble”.
Next, “SNAMKIIFSASPANRAAAYALRQAVFVEERGISADVEFDVKDTDQCEYAVLYLQPDLPITTLRLEPQADHVMRFGRVCTRKAYRGHGWGRQLLTAAEEWATQRGFTHGEIHGELTAQRFYELCGYRVTAGPYDEDGAPVVIMHKQLL”: “soluble”; “SNAMKLTPNFYRDRVCLNVLAGSKDNAREIYDAAEGHVLVGVLSKNYPDVASAVVDMRDYAKLIDNALSVGLGAGDPNQSAMVSEISRQVQPQHVNQVFTGVATSRALLGQNETVVNGLVSPTGTPGMVKISTGPLSSGAADGIVPLETAIALLKDMGGSSIKYFPMGGLKHRAEFEAVAKACAAHDFWLEPTGGIDLENYSEILKIALDAGVSKIIPHIYSSIIDKASGNTRPADVRQLLEMTKQLVK”: “soluble”.
With “SNAMKLTPNYYRDRVCLNVLAGSKDNARAIYQAAEGHVLVGVLSKNYPDVDSAVKDMREYAALIDNALSVGLGAGDPRQSVMVSQISQQVQPQHVNQVFTGVGASRALLGQHDTVVNGLISPTGKVGYVKISTGPLSSQQKDAIVPVTTAIAMLKDMGGSSVKFFPMNGLDSIDEYRFVAEACAATGFWLEPTGGIDLDNFEQIVQIALDAGVTKVIPHIYSSIIDSKTGNTRPEDVKTLLDIVKKIVQ” the entry was “soluble”.
For the sequence “SNAMKVKIYTRNGCPYCVWAKQWFEENNIAFDETIIDDYAQRSKFYDEMNQSGKVIFPISTVPQIFIDDEHIGGFTELKANADKILNKK”, the “soluble on expression in E. coli” value is listed as “soluble”.
With “SNAMLNIVLFEPEIPPNTGNIIRLCANTGCQLHLIKPLGFTWDDKRLRRAGLDYHEFADIKHHHDYQAFLDSEKLDSTQPARLFALTTKGTPAHSAVSYQANDYLLFGPETRGLPAYILDALPAQQKIRIPMQADSRSMNLSNAVSVVVYEAWRQLGYPGALLKE” the entry was “soluble”; with “SNAMNHLPEKMRPYRDLLEKSAKEYVKLNVRKGKTGRYDSKIAGDPYFPKHETYPTDENGQPMKLLAQINFSHIPQLDGYPSSGILQFYISVHDDVYGLNFDDRCEQKNFRVIYFENIVENDDELVSDFSFIGTGECDFPILSEAAVEPVKSSEWVLPTDFQFEQYTGMETMEFFGQFGEDEEDIYNELAENGFGHKIGGYASFTQHDPREYAYKEHTIMLLQIDSDDDIDSMWGDVGIANFFITPEDLRKKDFSNVLYNWDCS”, “soluble”.
With “SNAMPSIRYPSTEFPALTGFTVPIPETWQPDPTMGTQFAARPHTPPQGFTPNIIGTVRRAATGALHNQRTELDQRATQLPDYAERGRTETTVDGFPAYHIEYAYRHHGTITIAQMITLVEVSHPHAVDIIQLTATCAGDQTADYWDTFRLMHADLTVQPHG” the entry was “soluble”.
Next, “SNAMTKKKVYIVSHSHWDREWYLPYEEHHMRLIELVDNVLDLIENDPEFNSFHLDGQTIILDDYLQVRPEKKEAVKKAVQAGKLKIGPFYILQDDFLISSESNVRNMLIGHLESQKWGAPVQLGYFPDTFGNMGQTPQMMQLANLPAAAFGRGVKPIGFDNQVLESDYSSQYSEMWWEGPDQTKIFGLLFANWYSNGNEIPSEKEAAIAFWKQKLADVERYASTNHLLMMNGVDHQPVQRDITKAIALANELFPEYEFIHSNFDDYLKAVQEELPEDLGTVTGELTSQETDGWYTLANTSSARVYLKQWNTKVQRQLENIAEPLAAMAYEVTGDYPHDQFDYAWKTLLQNHPHDSICGCSVDEVHRGMMTRFENANDVGHFLADEATRQLTEAIDTSVFPEKAHPFVLFNTSGYQKTEVVTVEVEIERLPFYTGKPEDLYHELKQKATPDYQVIDPTGKAVASRIVKEDVRFGYDLPKDAFRQPYMAKYLTVELSVKEMAPFSWDSFALIQGETKAFEGSLLAQPATNEMENEFIQVKIENNGSLTIADKKTGETFSKLLTFEDTGDIGNEYIFFKPTEDQGITTENVTAEITNKENSPVKASYQIKQTVMLPVAADERLEEEQKAVREFRERLAQRSTTLRPFEITTMVTMIKESNQLFFETTINNQIKDHRLRVLFPTGMVTETHEADSIYEVVTRPNQVSDTWENPTNPQHQQAFVNVHDQNKGVTIFNEGLNEYEVLADGTIAVTLIRCVGELGDWGYFATPEAQCQGEYTFKYGLSLHGKPEERFATYQQAYSAQIPFTAATTARHEGKLAPNHVYLTTAEGPIGWTAVKRQEQTNHLVVRGFNLTAQNIPCELHKETQPATCLTNVLEEPLTPAIEVDAPLRPFEIRTWRFEK”: “soluble”.
As for “SNAMTQQDFRTKVDNTVFGVRATALIVQNHKLLVTKDKGKYYTIGGAIQVNESTEDAVVREVKEELGVKAQAGQLAFVVENRFEVDGVSYHNIEFHYLVDLLEDAPLTMQEDEKRQPCEWIDLDKLQNIQLVPVFLKTALPDWEGQLRHIHLEE”, the “soluble on expression in E. coli” value is recorded as “soluble”.
With “SNANRDSLFNDPNAPVLGNPEGDVTVVEFFDYNCPYCRRAMAEVQGLVDADPNVRLVYREWPILGEGSDFAARAALAARQQGKYEAFHWALMGMSGKANETGVLRIAREVGLDTEQLQRDMEAPEVTAHIAQSMALAQKLGFNGTPSFVVEDALVPGFVEQSQLQDAVDRARKAA” the entry was “soluble”; with “SNAPLLLGKKAPNLYMTDTTGTYRYLYDVQAKYTILFFWDSQCGHCQQETPKLYDWWLKNRAKGIQVYAANIERKDEEWLKFIRSKKIGGWLNVRDSKNHTDFKITYDIYATPVLYVLDKNKVIIAKRIGYENLDDFLVQYEKSLKTK”, “soluble”; with “SNAWIVPKNSVLFAMYGSIGETAINKIEVATNQAILGIIPKDNILESEFLYYILAKNKNYYSKLGMQTTQKNLNAQIVKSFKIPLPPLEEQKQIAKILTKI”, “not soluble”.
With “SNNCKENFLTSRYNKPVDEKQYNIPGKVTITTLQNIPVIYKRIVGSYKELELTNPLSELFQYGMEHDLLDKDSSFPLTIYHSHPDITTADNQRASSCIIIKQNVKQLDSEEIGLMEIPSGLYGVIHFEIRQKEYPDAWDFVYGNWLPSSGYLPANSFPFEVYLNNPLEDPLQKHIVDIYIPIEPIN” the entry was “not soluble”; with “SNPAAEAEFNILLATDSYKVTHYKQYPPNTSKVYSYFECREKKTENSKLRKVKYEETVFYGLQYILNKYLKGKVVTKEKIQEAKDVYKEHFQDDVFNEKGWNYILEKYDGHLPIEIKAVPEGFVIPRGNVLFTVENTDPECYWLTNWIETILVQSWYPITVATNSREQKKILAKYLLETSGNLDGLEYKLHDFGYRGVSSQETAGIGASAHLVNFKGTDTVAGLALIKKYYGTKDPVPGYSVPAAEHSTITAWGKDHEKDAFEHIVTQFSSVPVSVVSDSYDIYNACEKIWGEDLRHLIVSRSTQAPLIIRPDSGNPLDTVLKVLEILGKKFPVTENSKGYKLLPPYLRVIQGDGVDINTLQEVCVLY”, “not soluble”; with “SNRLGIPALSGDTLSLLNTPSEILNAIISDIEKAEHEINMEFYIWHHGGLADSVASALIVAAKRGVTVNVLLDSAGSMDFFKSHWPKLLKQSGVNIVEALSVSPFRMFFRRLDLRLHRKIVVIDNRIAYTGSMNLVDPQYFKQNSGVGQWIDVMVRLTGPNVAILNTIHAWDWEVETGIRELPHLPECPASIDPFNHTTQVVPSGPGMPDDIIQQV”, “not soluble”.
Next, “SNTTEILTSVDVLGTHSQTGTQQSNMYTSTQKTELEIDNKDSVTECSKDMKEDGLSFVDIVLSKAASALDEKEKQLAVANEIIRSLSDEVMRNEIRITSLQGDLTFTKKCLENARSQISEKDAKINKLMEKDFQVNKEIKPY”: “soluble”.
For “SNVRATYTVIFKNASGLPNGYDNWGWGCTLSYYGGAMIINPQEGKYGAVSLKRNSGSFRGGSLRFDMKNEGKVKILVENSEADEKFEVETISPSDEYVTYILDVDFDLPFDRIAFQDAPGNGDRIWIKNLVHSTGSADDFVDPINLEHHHHHH”, the “soluble on expression in E. coli” value was “soluble”.
Turning to “SPLEQRSQHCKPEEGLEARGEALGLVGAQAPATEEQEAASSSSTLVEVTLGEVPAAESPDPPQSPQGASSLPTTMNYPLWSQSYEDSSNQEEEGPSTFPDLESEFQAALSRKVAKLVHFLLLKYRAREPVTKAEMLGSVVGNWQYFFPVIFSKASDSLQLVFGIELMEVDPIGHVYIFATCLGLSYDGLLGDNQIMPKTGFLIIILAIIAKEGDCAPEEKIWEELSVLEVFEGREDSIFGDPKKLLTQYFVQENYLEYRQVPGSDPACYEFLWGPRALIETSYVKVLHHMVKISGGPRISYPLLHEWALREGEE”, the “soluble on expression in E. coli” value was “soluble”.
Next, “SPMAVEEVIEMQGLSLDPTSHRVMAGEEPLEMGPTEFKLLHFFMTHPERVYSREQLLNHVWGTNVYVEDRTVDVHIRRLRKALEPGGHDRMVQTVRGTGYRFSTRF”: “soluble”.
Next, “SPRGLELLIAQTILQGFDAQYGRFLEVTSGAQQRFEQADWHAVQQAMKNRIHLYDHHVGLVVEQLRCITNGQSTDAEFLLRVKEHYTRLLPDYPRFEIAESFFNSVYCRLFDHRSLTPERLFIFSSQPERRFRTIPRPLAKDFHPDHGWESLLMRVISDLPLRLHWQNKSRDIHYIIRHLTETLGPENLSKSHLQVANELFYRNKAAWLVGKLITPSGTLPFLLPIHQTDDGELFIDTCLTTTAEASIVFGFARSYFMVYAPLPAALVEWLREILPGKTTAELYMAIGCQKHAKTESYREYLVYLQGCNEQFIEAPGIRGMVMLVFTLPGFDRVFKVIKDKFAPQKEMSAAHVRACYQLVKEHDRVGRMADTQEFENFVLEKRHISPALMELLLQEAAEKITDLGEQIVIRHLYIERRMVPLNIWLEQVEGQQLRDAIEEYGNAIRQLAAANIFPGDMLFKNFGVTRHGRVVFYDYDEICYMTEVNFRDIPPPRYPEDELASEPWYSVSPGDVFPEEFRHWLCADPRIGPLFEEMHADLFRADYWRALQNRIREGHVEDVYAYRRRQRFSVRYGEMLF”: “soluble”; “SPTNLANGLSSLLKPLKFFHLPIDEISLMLALSLRFVPTLMDETGKIMNAQRARGVDFGEGNIFQQMRSLVPIFIPQFIASFNRADELATAMESRGYRGAAKRTKFNRLKFK”: “not soluble”.
With “SQELTLSPGPAKLTPTLDPTHRMELILSTSPAELTLDPACQPKLPLDSTCQPEMTFNPGPTELTLDPEHQPEETPAPSLAELTLEPVHRRPELLDACADLINDQWPRSRTSRLHSLGQSSDAFPLCLMLLSPHPTLEAAPVVVGHARLSRVLNQPQSLLVETVVVARALRGRGFGRRLMEGLEVFARARGFRKLHLTTHDQVHFYTHLGYQLGEPVQGLVFTSRRLPATLLNAFPTAPSPRPPRKAPNLTAQAAPRGPKGPPLPPPPPLPECLTISPPVPSGPPSKSLLETQYQNVRGRPIFWMEKDI” the entry was “soluble”.
On to “SQEQAQTTDWRATLKTIRNGVHKIDTYLNAALDLLGGEDGLCQYKCSDGSKPFPRYGYKPSPPNGCGSPLFGVHLNIGIPSLTKCCNQHDRCYETCGKSKNDCDEEFQYCLSKICRDVQKTLGLTQHVQACETTVELLFDSVIHLGCKPYLDSQRAACRCHYEEKTDL”, for which the “soluble on expression in E. coli” value is “soluble”.
Next, “SQEVMKNLSLNFGKALDECKKEMTLTDAINEDFYNFWKEGYEIKNRETGCAIMCLSTKLNMLDPEGNLHHGNAMEFAKKHGADETMAQQLIDIVHGCEKSTPANDDKCIWTLGVATCFKAEIHKLNWAPSMDVAVGEILAEV”: “soluble”.
As to “SQPDHGRLSPPEAPDRPTISTASETSVYVTWIPRGNGGFPIQSFRVEYKKLKKVGDWILATSAIPPSRLSVEITGLEKGISYKFRVRALNMLGESEPSAPSRPYVVSG”, the “soluble on expression in E. coli” value was “soluble”.
